# Data as given in IntAct's records for PubMed 23386062.
# Columns and labels:
# nisch_human NISCH [1] = target: nisch_human NISCH (UniProt Q9Y2I1)
# nisch_human NISCH [2] = target: nisch_human NISCH (UniProt Q9Y2I1); remark: listed apart in the source
# nisch_human NISCH [3] = target: nisch_human NISCH (UniProt Q9Y2I1); remark: listed apart in the source
# nisch_human NISCH [4] = target: nisch_human NISCH (UniProt Q9Y2I1); remark: listed apart in the source
# UniProt Q9Y2I1, sequence (Q9Y2I1 whole entry): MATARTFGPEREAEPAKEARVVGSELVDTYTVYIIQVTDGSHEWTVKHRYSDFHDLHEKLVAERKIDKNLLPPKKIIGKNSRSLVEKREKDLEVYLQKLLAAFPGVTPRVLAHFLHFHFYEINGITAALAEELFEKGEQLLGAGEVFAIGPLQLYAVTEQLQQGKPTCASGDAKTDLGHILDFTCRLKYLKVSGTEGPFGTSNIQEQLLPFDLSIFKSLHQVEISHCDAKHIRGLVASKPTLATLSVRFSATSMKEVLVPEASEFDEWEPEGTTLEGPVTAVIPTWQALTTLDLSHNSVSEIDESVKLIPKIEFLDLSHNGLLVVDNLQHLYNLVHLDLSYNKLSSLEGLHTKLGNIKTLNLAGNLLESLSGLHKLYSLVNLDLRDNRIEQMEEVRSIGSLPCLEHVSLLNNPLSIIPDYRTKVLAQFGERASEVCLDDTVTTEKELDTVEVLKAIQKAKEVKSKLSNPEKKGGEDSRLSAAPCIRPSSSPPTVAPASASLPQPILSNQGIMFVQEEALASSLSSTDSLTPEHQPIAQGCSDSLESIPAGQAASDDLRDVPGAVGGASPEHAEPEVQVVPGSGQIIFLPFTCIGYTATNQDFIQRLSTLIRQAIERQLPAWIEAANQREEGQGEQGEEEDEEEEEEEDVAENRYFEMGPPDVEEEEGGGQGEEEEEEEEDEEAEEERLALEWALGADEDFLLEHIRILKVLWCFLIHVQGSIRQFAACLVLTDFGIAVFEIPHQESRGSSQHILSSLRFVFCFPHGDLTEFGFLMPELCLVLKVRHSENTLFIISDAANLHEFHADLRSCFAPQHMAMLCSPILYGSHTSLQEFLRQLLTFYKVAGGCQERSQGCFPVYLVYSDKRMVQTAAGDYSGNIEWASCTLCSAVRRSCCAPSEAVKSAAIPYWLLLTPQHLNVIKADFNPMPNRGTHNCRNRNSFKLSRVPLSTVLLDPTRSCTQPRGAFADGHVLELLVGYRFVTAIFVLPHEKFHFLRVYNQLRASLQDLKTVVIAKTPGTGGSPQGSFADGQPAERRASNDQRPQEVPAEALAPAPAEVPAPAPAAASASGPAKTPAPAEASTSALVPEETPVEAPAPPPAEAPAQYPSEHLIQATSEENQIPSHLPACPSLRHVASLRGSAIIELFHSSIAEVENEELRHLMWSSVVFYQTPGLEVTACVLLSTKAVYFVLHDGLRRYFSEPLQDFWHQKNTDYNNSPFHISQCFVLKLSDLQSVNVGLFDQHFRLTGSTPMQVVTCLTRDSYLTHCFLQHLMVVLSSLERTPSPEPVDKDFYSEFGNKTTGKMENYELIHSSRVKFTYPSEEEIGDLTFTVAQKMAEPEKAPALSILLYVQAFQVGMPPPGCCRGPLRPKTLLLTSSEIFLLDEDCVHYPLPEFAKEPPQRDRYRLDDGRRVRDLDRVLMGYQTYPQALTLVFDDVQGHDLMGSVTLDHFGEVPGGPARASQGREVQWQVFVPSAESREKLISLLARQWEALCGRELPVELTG
substance,measurement,setting,value
Ras-related protein Rab-14 (Rattus norvegicus (Rat)) (from UniProt P61107) N124I,effect of a mutation on the interaction,nisch_human NISCH [1],decreasing interaction
Ras-related protein Rab-14 (Rattus norvegicus (Rat)) (from UniProt P61107) Q70L,effect of a mutation on the interaction,nisch_human NISCH [2],increasing interaction
Ras-related protein Rab-14 (Rattus norvegicus (Rat)) (from UniProt P61107) S25N,effect of a mutation on the interaction,nisch_human NISCH [3],disrupting interaction
same,effect of a mutation on the interaction,nisch_human NISCH [4],decreasing interaction
